Assay results from patent US20180044415A1 (AbbVie / Abbott, published 2018).
Changes are numbered by the printed parent chain. Values belong to the binder of their own block, whether it stands above or below them.

Target: T1, human DLL3 (immobilized human DLL3 or h293-hDLL3 cells) (human, UniProt Q9NYJ7 27-492, limits assumed)
T1 construct: the sentence says 'immobilized human DLL3 or h293-hDLL3 cells'
T1 sequence: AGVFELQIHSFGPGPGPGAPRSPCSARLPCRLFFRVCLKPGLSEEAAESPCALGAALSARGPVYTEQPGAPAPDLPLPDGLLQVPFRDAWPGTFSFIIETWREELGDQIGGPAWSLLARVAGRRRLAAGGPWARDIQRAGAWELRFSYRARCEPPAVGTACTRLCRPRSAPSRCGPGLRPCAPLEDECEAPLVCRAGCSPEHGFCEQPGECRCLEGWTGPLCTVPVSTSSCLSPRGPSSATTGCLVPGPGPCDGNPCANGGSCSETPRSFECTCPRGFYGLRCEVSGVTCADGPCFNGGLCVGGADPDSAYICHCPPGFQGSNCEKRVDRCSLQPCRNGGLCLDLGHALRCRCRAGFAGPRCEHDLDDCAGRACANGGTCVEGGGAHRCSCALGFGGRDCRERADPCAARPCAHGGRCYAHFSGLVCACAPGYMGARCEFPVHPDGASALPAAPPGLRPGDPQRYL
Assay: hybridoma screening on immobilized human DLL3 or on h293-hDLL3 cells

B1: SC16.147 (antibody, V domains shown)
VH: QIQLVQSGPELTKPGETVKISCKASGYTFTDYSLHWVKQALGKGLKWMGWINTETGEPAYADDFKGRFAFSLETSASTAYLQINDLKNEDTTTYFCGIYDGYAMDYWGQGTSVTVSS
VL: DIQMTQTASSLSASLGDRVTISCRASQDINNYLNWYQQKPDGTVKLLIYYTSRLHSGVPSRFSGSGSGTDYSLTISILEQEDIATYFCQQGDTLPWTFGGGTKLEIK
notes: murine mAb; variable regions only
binding result: binds

B2: SC16.22 (antibody, V domains shown)
VH: QVQLQQPGAELVKPGASVKLSCKASGYTFTTYWMHWVKQRPGQGLEWIGEIDPSDSYTYYNQKFKGKATLTVDKSSSTAYMQLSSLTSEDSAVYYCARGDYGNPYAMDYWGQGSSVTVSS
VL: B1 VL with A8T, N30K, L46P, L54V, I77N, D92Y, W96F, G100S
notes: as for B1
binding result: binds

B3: SC16.4 (antibody, V domains shown)
VH: B1 VH with T12K, L34M, L41P, A59G, D85N, T92A, G97A, I98R
VL: B1 VL with A8T, N30S, I77N, Q80L, T93M
notes: as for B1
binding result: binds

B4: SC16.18 (antibody, V domains shown)
VH: EVKLEESGGGLVQPGESMKLSCAASGFTFSDAWMDWVRQSPEKGLEWVAEIRNKANNHATYYAESVKGKFTISRDDSKSRVYLQMNNLRAADTGIYYCTAYSNFAYWGQGTLVTVST
VL: DIQMTQTTSSLSASLGDRVTISCRASQNIINYLNWYQQKPDGTVKLLIYYTSRLHSGVPSRFSGSGSGTDYSLTISNLEPEDIATYYCQQYSERPYTFGGGTKLEIK
notes: as for B1
binding result: binds

B5: SC16.41 (antibody, V domains shown)
VH: B4 VH with P14F, E16G, A63P, K69R, A91E, A100G, N103S, T117A
VL: B4 VL with N28D, I29V, G68R
notes: as for B1
binding result: binds

B6: SC16.11 (antibody, V domains shown)
VH: QIQLVQSGPELKKPGETVKISCKASGYTFTDYSMHWVKQAPGKGLKWMGWINTETVEPTYADDFMGRFAFSLETSASTAFLQINNLENEDTATYFCARFGSYAMDYWGQGTSVTVSS
VL: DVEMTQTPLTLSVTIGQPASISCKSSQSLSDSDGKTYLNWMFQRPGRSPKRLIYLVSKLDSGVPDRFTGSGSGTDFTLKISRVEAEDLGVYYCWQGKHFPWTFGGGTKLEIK
notes: as for B1
binding result: binds

B7: SC16.19 (antibody, V domains shown)
VH: EVQLQQSGAELVRPGASVKLSCTASGFNIKDSLLHWVKQRPEKGLEWIGWIDPEDGETKYAPNFQDKATITTDSSSNTAYLQLISLTSVDTAIYYCAYGNYVRHFDYWGQGTTLTVSS
VL: DIQMTQSPSSLSASLGGKVTFTCKASQDIHKYVAWYQHKPGKGPRLLIHYTSTLQPGISSRFSGSGSGRDYSFSISNLEPEDIATYYCLQYNNLYTFGGGTKLEIK
notes: as for B1
binding result: binds

B8: SC16.144 (antibody, V domains shown)
VH: QIQLVQSGPELKKPGETVKISCKASGYTFTNYGMNWVKQAPGKGLKWVGWINTYTGEPTYADDFKGRFAFSLETSASTAYLQIDNLKNEDTATYFCARVGDYVGFDYWGQGTTLTVSS
VL: SIVMTQTPKFLLVSAGDRVTITCKASQSVSNDVGWYQQKPGQSPKLLIYYASNRYNGVPDRFTGSGYGTDFTFTISTVQAEDLAVYFCQQDYSSPWTFGGGTKLEIK
notes: as for B1
binding result: binds

B9: SC16.5 (antibody, V domains shown)
VH: QVTLKESGPGILQPSQTLSLTCSFSGFSLSTSGMGVGWIRQPSGEGLEWLADIWWDDNKYYNPSLKSRLTISKDTSSNQVFLKITSVDTADTATYYCARRVNYVYDPYYAMDYWGQGTSVTVSS
VL: QIVLTQSPAIMSASPGEKVTMTCSASSSVSYMHWYQQKSGTSPKRWIYDTSKLASGVPARFSGSGSGTSYSLTISSMEAEDAATYYCQQWTRNPLTFGAGTKLELK
notes: as for B1
binding result: binds

B10: SC16.25 (antibody, V domains shown)
VH: B9 VH with A51T, K83N, V104Y
VL: B9 VL with T50S, T91S, R92S
notes: as for B1
binding result: binds

B11: SC16.8 (antibody, V domains shown)
VH: QAQLQQSGAELVRPGTSVKVSCKASGYAFTNYLIEWVKQRPGQGLEWIGVINPGTGGTNYNENFKGKATLTADKSSSTAYMQLSSLTSDDSAVYFCARSPYDYHEGAMDYWGQGTSVTVSS
VL: EIQMTQSPSSMSASLGDRITITCQATQDIVKNLNWYQQKPGKPPSFLIYYAIELAEGVPSRFSGSGSGSDYSLTISNLESEDFADYYCLQFYEFPFTFGAGTKLELK
notes: as for B1
binding result: binds

B12: SC16.20 (antibody, V domains shown)
VH: QVQLQQSGTELVRPGTSVRVSCKASGYAFGNHLIEWVKQRPGQGLEWIGVINPGTGGTHYNEKFKDKARLTADKSSNTAYMHLNSLTSDDSAVYFCARSPYDYHEGAMDYWGQGTSVTVSS
VL: B11 VL with I52T, S76R, Y86H
notes: as for B1
binding result: binds

B18: SC16.126 (antibody, V domains shown)
VH: QVQMKESGPGLVAPSQSLSITCTVSGSSLTNYGVHWVRQPPGKGLEWLGVIWAGGSTNYNSALMSRLSISKDNSKSQVFLKMNSLQTDDTAMYYCARDWEGWFAYWGQGTLVTVSA
VL: DIQMNQSPSSLSASLGDTITITCHASQNINVWLSWYQQKPGNIPKLLIYKASNLHTGVPSRFSGSGSGTGFTLTISSLQPEDIATYYCQQGQSYPFTFGSGTKLEIK
notes: as for B1
binding result: binds

The next lines start with the values.

binding result: binds
B13: SC16.3 (antibody, V domains shown)
VH: QVTLKESGPGILQPSQTLSLTCSFSGFSLSTSGMGVGWIRQPSGKGLEWLAHIWWDDVKRYNPALKSRLTISKDTSSSQVFLKIASVDTADTATYYCARIADYGGDYYAMDYWGQGTSVTVSS
VL: QIVLTQSPAIMSVSLGERVTMTCTASSSVSSSYLHWYQQKPGSSPKLWIYSTSNLASGVPARFSGSGSGTSYFFTISSMEAEDAATYYCHQYHRSPFTFGAGTKLKIR
notes: as for B1

binding result: binds
B14: SC16.10 (antibody, V domains shown)
VH: QVTLKESGPGILQSSQTLSLTCSFSGFSLSTSGMGVGWIRQPSGKGLEWLAHIWWDDVKRYNPVLKSRLTISKDTSSSQVFLKIASVDTADTATYYCARLVDDLYYFDYWGQGTTLTVSS
VL: B13 VL with V13A, A61T, F73S, F74L, A101S, K106E, R108K
notes: as for B1

binding result: binds
B15: SC16.7 (antibody, V domains shown)
VH: EVQLQQSGPELVKPGASVKISCKASGYSFTGYKMHWVKQSHVKSLEWIGRINPYNGATSYNQNFKDKATLTVDKSSSTAYMDLHSLTSEDSAVYFCARGDYRYDWFAYWGQGTLVTVSA
VL: NIMMTQSPSSLAVSAGEKVTMSCKSSQSVLYSSNQKNYLAWYQQKPGQSPKLLIYWASTRESGVPDRFTGSGSGTDFTLTISTVQVEDLAVYYCHQYLSSWTFGGGTKLEIK
notes: as for B1

binding result: binds
B16: SC16.15 (antibody, V domains shown)
VH: QVQLQQSGAELAKPGASVKMSCKASGYTFTRYWIHWIKQRPGQGLEWIGYINPTTVYTEFNQNFKDKATLTADKSSTTASMQLSSLTSEDSAVYYCARGGSNFFDYWGQGTTLTVSS
VL: DIQMTQSPASLAASVGETVAITCRASENIYYNLAWYQQKQGKSPQLLIYTANSLEDGVPSRFSGSGSGTQYSLKINSMQPEDSATYFCKQAYDVPPTFGGGTKLEIK
notes: as for B1

binding result: binds
B17: SC16.148 (antibody, V domains shown)
VH: QIQLVQSGPELKKPGETVKISCKASGYTLTNYGMNWVKQAPGKGLKWMGWINTYTGEPTYADDFKGRFAFSLETSARIVYLQINNLKNEDTATYFCAKYEAHEGFVYWGQGTLVTVSA
VL: QIVLTQSPAIMSASPGEKVTMTCSASSSVSYMYWYQQKPGSSPRLLIYDTSNLASGVPVRFSGSGSGTSYSLTISRMEAEDTATYYCQEWSNNPLTFGDGTKLELK
notes: as for B1

binding result: binds
B19: SC16.149 (antibody, V domains shown)
VH: B18 VH with M4L, T23A, S27F, N31S, Y32F, N60Y, K71I
VL: B18 VL with N53H, F62L, K103T
notes: as for B1

binding result: binds
B20: SC16.143 (antibody, V domains shown)
VH: QVQLQQSGPELVKPGASVRISCKASGYTFTSYYIHWVKQRPGQGLEWIGWIYPGNGNTKYNEKFKGKATLTADKSSSTAYMQISSLTSEDSAVYFCARERWLLLWFAYWGQGTLVTVSA
VL: DVLMTQTPLSLPVSLGDQASISCRSSQSIVHSNGNTYLEWYLQKPGQSPKLLIYKVSNRFSGVPDRFSGSGSGTDFTLKISRVEAEDLGVYYCFQGSHVPLTFGAGTKLELK
notes: as for B1

binding result: binds
B21: SC16.21 (antibody, V domains shown)
VH: QVQLQQSGPELVKPGASVKISCKASGYAFSSSWMNWVKQRPGKGLEWIGRIYPGDGDTNYNGKFKGKATLTADKSSSTAYMQLSSLTSEDSAVYFCAMGIYNYDGSRYYSMDYWGQGTSVTVSS
VL: DIVMTQSPSSLAMSVGQKVTMSCKSSQSLLNSSNQKNYLAWYQQEPGQSPKLLVSFASTRESGVPDRFTGSGSGTDFTLTISGVQAEDLAVYYCQQHYSIPLTFGAGTKLELK
notes: as for B1

binding result: binds
B22: SC16.29 (antibody, V domains shown)
VH: QVQLQQSGAELARPGASVKLSCKASGYTFTDQYINWVKQRTGQGLEWIGEIYPGRGNTYYNEKFKGKATLTADKSSSTAYMQLSSLTSEDSAVYFCAREDGGYDDAWFAYWGQGTLVTVSA
VL: QIVLTQSPAIMSASPGEKVTITCSASSSVSYMHWFQQKPGTSPKLWIYTTSNLASGVPARFSGSGSGTSYSLTVSRMEAEDAATYYCQQRSLYPYTFGGGTKVEIK
notes: as for B1
